*1 amine or outer side, *2 acyl side, *3 side chain or, on linkers, in order; H or OH if unused. Bridges are numbered along the chain shown (N, C = ends). Where no end group is shown, it is not given here. [ ]: non-standard residue; d: D form. The star is where a group is joined. TATA = O=C(CC[*:1])N1CN(C(=O)CC[*:2])CN(C(=O)CC[*:3])C1; Phe(4-CF3) = N[C@@H](Cc1ccc(C(F)(F)F)cc1)C(=O)O; Phe(3-Me) = Cc1cccc(C[C@H](N)C(=O)O)c1; 1Nal = N[C@@H](Cc1cccc2ccccc12)C(=O)O; 2Nal = N[C@@H](Cc1ccc2ccccc2c1)C(=O)O; hPhe = N[C@@H](CCc1ccccc1)C(=O)O; NMeA = CN[C@@H](C)C(=O)O; Pent4ynoyl = C#CCCC(=O)*
B1: BCY19766 (peptide)
peptide: ACSYYCFWPFQSCA-NH2
modifications: linker 2-6-13 via TATA; N-terminus assumed
SMILES: C[C@H](N)C(=O)N[C@H]1CSCCC(=O)N2CN3CN(C2)C(=O)CCSC[C@H](NC(=O)[C@H](Cc2ccc(O)cc2)NC(=O)[C@H](Cc2ccc(O)cc2)NC(=O)[C@H](CO)NC1=O)C(=O)N[C@@H](Cc1ccccc1)C(=O)N[C@@H](Cc1c[nH]c2ccccc12)C(=O)N1CCC[C@H]1C(=O)N[C@@H](Cc1ccccc1)C(=O)N[C@@H](CCC(N)=O)C(=O)N[C@@H](CO)C(=O)N[C@H](C(=O)N[C@@H](C)C(N)=O)CSCCC3=O
B2: BCY19669 (peptide)
peptide: Ac-CSEYCF[1Nal]PFYHC-NH2
modifications: linker 1-5-12 via TATA
SMILES: CC(=O)N[C@H]1CSCCC(=O)N2CN3CN(C2)C(=O)CCSC[C@H](NC(=O)[C@H](Cc2ccc(O)cc2)NC(=O)[C@H](CCC(=O)O)NC(=O)[C@H](CO)NC1=O)C(=O)N[C@@H](Cc1ccccc1)C(=O)N[C@@H](Cc1cccc2ccccc12)C(=O)N1CCC[C@H]1C(=O)N[C@@H](Cc1ccccc1)C(=O)N[C@@H](Cc1ccc(O)cc1)C(=O)N[C@@H](Cc1c[nH]cn1)C(=O)N[C@H](C(N)=O)CSCCC3=O
B3: BCY19671 (peptide)
peptide: CSEYCFXPFYHC
modifications: N-terminal acetyl (Ac); CiSEYCiiF[6ClTrp]PFYHCiii; Ci, Cii, Ciii on TATA scaffold
B4: BCY19768 (peptide)
peptide: ACTSYCFWPFYQCA-NH2
modifications: linker 2-6-13 via TATA; N-terminus assumed
SMILES: C[C@H](N)C(=O)N[C@H]1CSCCC(=O)N2CN3CN(C2)C(=O)CCSC[C@H](NC(=O)[C@H](Cc2ccc(O)cc2)NC(=O)[C@H](CO)NC(=O)[C@H]([C@@H](C)O)NC1=O)C(=O)N[C@@H](Cc1ccccc1)C(=O)N[C@@H](Cc1c[nH]c2ccccc12)C(=O)N1CCC[C@H]1C(=O)N[C@@H](Cc1ccccc1)C(=O)N[C@@H](Cc1ccc(O)cc1)C(=O)N[C@@H](CCC(N)=O)C(=O)N[C@H](C(=O)N[C@@H](C)C(N)=O)CSCCC3=O
B5: BCY20051 (peptide)
peptide: CSEYCXWPFYHC
modifications: N-terminal acetyl (Ac); CiSEYCii[2FPhe]WPFYHCiii; Ci, Cii, Ciii on TATA scaffold
B6: BCY20058 (peptide)
peptide: CSEYCFXPFYHC
modifications: N-terminal acetyl (Ac); CiSEYCiiF[5FTrp]PFYHCiii; Ci, Cii, Ciii on TATA scaffold
B7: BCY20057 (peptide)
peptide: CSEYCFXPFYHC
modifications: N-terminal acetyl (Ac); CiSEYCiiF[6FTrp]PFYHCiii; Ci, Cii, Ciii on TATA scaffold
B8: BCY20062 (peptide)
peptide: CSEYCFXPFYHC
modifications: not fully specified; N-terminal acetyl (Ac); CiSEYCiiF[AzaTrp]PFYHCiii; Ci, Cii, Ciii on TATA scaffold
B9: BCY20067 (peptide)
peptide: CSEYCFWXFYHC
modifications: N-terminal acetyl (Ac); CiSEYCiiFW[Cis-HyP]FYHCiii; Ci, Cii, Ciii on TATA scaffold
B10: BCY20072 (peptide)
peptide: CSEYCFWPXYHC
modifications: N-terminal acetyl (Ac); CiSEYCiiFWP[3MePhe]YHCiii; Ci, Cii, Ciii on TATA scaffold
B11: BCY20080 (peptide)
peptide: CSEYCFWPFXHC
modifications: N-terminal acetyl (Ac); CiSEYCiiFWPF[3tBuTyr]HCiii; Ci, Cii, Ciii on TATA scaffold

target: T1, TREM2 on human iPSC macrophages (human, UniProt Q9NZC2 19-230); test: cell-based or functional assay
T1 sequence (looked up): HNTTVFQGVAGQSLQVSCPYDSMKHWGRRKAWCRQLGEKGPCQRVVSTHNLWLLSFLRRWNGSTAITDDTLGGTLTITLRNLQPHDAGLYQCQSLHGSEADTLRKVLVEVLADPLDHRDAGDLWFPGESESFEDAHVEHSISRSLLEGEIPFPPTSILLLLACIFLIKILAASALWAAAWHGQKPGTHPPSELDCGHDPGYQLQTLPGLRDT

| Binder | pSYK (µM) |
| --- | --- |
| ACSNYCFWPFWQCA (linker 2-6-13 via TATA) [BCY19770] | 4.5 µM |
| ACSNYCFWPFFQCA (linker 2-6-13 via TATA) [BCY19772] | 13.9 µM |
| ACSEYCFWPFFLCA (linker 2-6-13 via TATA) [BCY19776] | 4.4 µM |
| ACSEYCFWPFWQCA (linker 2-6-13 via TATA) [BCY19778] | 4.6 µM |
| ACTNYCFWPFQSCA (linker 2-6-13 via TATA) [BCY19780] | 12.6 µM |
| ACTNYCFWPFWSCA (linker 2-6-13 via TATA) [BCY19769] | 0.2 µM |
| ACTNYCFWPFQYCA (linker 2-6-13 via TATA) [BCY19779] | 2.5 µM |
| ACTNYCFWPFYSCA (linker 2-6-13 via TATA) [BCY19781] | 34.1 µM |
| ACTNYCFWPFYLCA (linker 2-6-13 via TATA) [BCY19782] | 3.8 µM |
| ACTNYCFWPFAVCA (linker 2-6-13 via TATA) [BCY19783] | 4.2 µM |
| ACSYYCFWPFQYCA (linker 2-6-13 via TATA) [BCY19767] | 8.6 µM |
| B1 | 35.2 µM |
| ACSEYCFWPFQWCA (linker 2-6-13 via TATA) [BCY19771] | 9.9 µM |
| ACSEYCFWPFQYCA (linker 2-6-13 via TATA) [BCY19784] | 1.8 µM |
| Ac-CSEYCFWPFYAC (linker 1-5-12 via TATA) [BCY19293] | 7.2 µM |
| B2 | 16.6 µM |
| Ac-CSEYCF[1Nal]PFYAC (linker 1-5-12 via TATA) [BCY19294] | < 3.4 µM |
| Ac-CSEYCF[2Nal]PFYAC (linker 1-5-12 via TATA) [BCY19296] | < 3.4 µM |
| Ac-CSEYCFW[NMeA]FYAC (linker 1-5-12 via TATA) [BCY19303] | < 3.4 µM |
| CSEYCFWPXYHC (N-terminal acetyl (Ac); CiSEYCiiFWP[HPhe]YHCiii; Ci, Cii, Ciii on TATA scaffold) [BCY19667] | 7.4 µM |
| Ac-CSEYCF[1Nal]P[hPhe]YHC (linker 1-5-12 via TATA) [BCY19672] | 8.5 µM |
| CSEYCFWPXYHC (N-terminal acetyl (Ac); CiSEYCiiFWP[1Nal]YHCiii; Ci, Cii, Ciii on TATA scaffold) [BCY19668] | 12.7 µM |
| B3 | 154 µM |
| B4 | 7.8 µM |

target: T2, Human TREM2 extracellular domain (ECD), residues 19-131, C-terminally biotinylated, glycosylated (human, UniProt Q9NZC2 19-131, C-terminally biotinylated; glycosylated); test: BLI steady state, glycosylated human TREM2 ECD on sensor
T2 construct: range 19-131; loaded on Superstreptavidin biosensors; also called Human BLI glycosylated
T2 sequence (looked up): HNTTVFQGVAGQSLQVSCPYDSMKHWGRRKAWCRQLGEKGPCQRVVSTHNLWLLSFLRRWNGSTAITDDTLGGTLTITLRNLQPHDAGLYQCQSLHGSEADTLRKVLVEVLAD
Procedure: (§1) Bio-layer interferometry was performed on an Octet RED384® system (Sartorius) at 25° C. in a buffer containing 50 mM HEPES (pH 7.5), 150 mM NaCl and 0.1% Tween. […] Reference wells containing no bicycle peptides and reference sensors loaded with an unrelated protein (His-tagged MLLT3a) were subjected to the same assay protocol and double reference subtraction was used for processing to account for non-specific binding. Traces were analysed using Octet Software (Version 11.0). Association and dissociation curves were globally fit and the response at equilibrium (Req) plotted against concentration to obtain steady-state KD values.

| Binder | Kd |
| --- | --- |
| K(Pent4ynoyl)CSEYCFWPFYHC (linker 2-6-13 via TATA) [BCY20042] | 1350 nM |
| CSEYCFWPXYHC (N-terminal acetyl (Ac); CiSEYCiiFWP[2Nal]YHCiii; Ci, Cii, Ciii on TATA scaffold) [BCY20076] | 1290 nM |
| Ac-CSEYCFWPFWHC (linker 1-5-12 via TATA) [BCY20077] | 750 nM |

target: T3, Human TREM2 extracellular domain (ECD), residues 19-131, C-terminally biotinylated, deglycosylated (human, UniProt Q9NZC2 19-131, C-terminally biotinylated; deglycosylated); test: BLI steady state, deglycosylated human TREM2 ECD on sensor
T3 construct: range 19-131; loaded on Superstreptavidin biosensors; also called triggering receptor expressed on myeloid cells 2; Human BLI (deglycosylated)
T3 sequence (looked up): T2 sequence (looked up)
Procedure: as §1

| Binder | Kd |
| --- | --- |
| ACSNYCFWPFWQCA (linker 2-6-13 via TATA) [BCY19770] | 1800 nM |
| ACSNYCFWPFFQCA (linker 2-6-13 via TATA) [BCY19772] | 960 nM |
| ACSEYCFWPFFLCA (linker 2-6-13 via TATA) [BCY19776] | 750 nM |
| ACSEYCFWPFWQCA (linker 2-6-13 via TATA) [BCY19778] | 3600 nM |
| ACTNYCFWPFQSCA (linker 2-6-13 via TATA) [BCY19780] | 2400 nM |
| ACTNYCFWPFWSCA (linker 2-6-13 via TATA) [BCY19769] | 920 nM |
| ACTNYCFWPFQYCA (linker 2-6-13 via TATA) [BCY19779] | 920 nM |
| ACTNYCFWPFYSCA (linker 2-6-13 via TATA) [BCY19781] | 1400 nM |
| ACTNYCFWPFYLCA (linker 2-6-13 via TATA) [BCY19782] | 1400 nM |
| ACTNYCFWPFAVCA (linker 2-6-13 via TATA) [BCY19783] | 2700 nM |
| ACSYYCFWPFQYCA (linker 2-6-13 via TATA) [BCY19767] | 550 nM |
| B1 | 1000 nM |
| ACSEYCFWPFQWCA (linker 2-6-13 via TATA) [BCY19771] | 5700 nM |
| ACSEYCFWPFQYCA (linker 2-6-13 via TATA) [BCY19784] | 450 nM |
| Ac-CSEYCFWPFYAC (linker 1-5-12 via TATA) [BCY19293] | 970 nM |
| B2 | 2000 nM |
| Ac-CSEYCF[1Nal]PFYAC (linker 1-5-12 via TATA) [BCY19294] | 1500 nM |
| Ac-CSEYCF[2Nal]PFYAC (linker 1-5-12 via TATA) [BCY19296] | 2700 nM |
| Ac-CSEYCFW[NMeA]FYAC (linker 1-5-12 via TATA) [BCY19303] | 2300 nM |
| CSEYCFWPXYHC (N-terminal acetyl (Ac); CiSEYCiiFWP[HPhe]YHCiii; Ci, Cii, Ciii on TATA scaffold) [BCY19667] | 430 nM |

| Binder | Kd |
| --- | --- |
| Ac-CSEYCF[1Nal]P[hPhe]YHC (linker 1-5-12 via TATA) [BCY19672] | 2800 nM |
| CSEYCFWPXYHC (N-terminal acetyl (Ac); CiSEYCiiFWP[1Nal]YHCiii; Ci, Cii, Ciii on TATA scaffold) [BCY19668] | 240 nM |
| B3 | 1000 nM |
| B4 | 900 nM |
| K(Pent4ynoyl)CSEYCFWPFYHC (linker 2-6-13 via TATA) [BCY20042] | 1190 nM |
| Ac-ACSEYCFWPFYHCA-NH2 (linker 2-6-13 via TATA) [BCY18218] | 2000 nM |
| CSEYCFWPFYHC-NH2 (linker 1-5-12 via TATA) [BCY18219] | 700 nM |
| B5 | 2040 nM |
| B6 | 1430 nM |
| B7 | 2560 nM |
| Ac-CSEYCF[Phe(3-Me)]PFYHC (linker 1-5-12 via TATA) [BCY20064] | 5240 nM |
| Ac-CSEYCF[2Nal]PFYHC (linker 1-5-12 via TATA) [BCY20056] | 4690 nM |
| B8 | 3440 nM |
| Ac-CSEYCF[Phe(4-CF3)]PFYHC (linker 1-5-12 via TATA) [BCY20065] | 7280 nM |
| CSEYCFWXFYHC (N-terminal acetyl (Ac); CiSEYCiiFW[Pip]FYHCiii; Ci, Cii, Ciii on TATA scaffold) [BCY20069] | 1460 nM |
| CSEYCFWXFYHC (N-terminal acetyl (Ac); CiSEYCiiFW[Aze]FYHCiii; Ci, Cii, Ciii on TATA scaffold) [BCY20068] | 2540 nM |
| B9 | 23600 nM |
| B10 | 1670 nM |
| B11 | 375 nM |
| CSEYCFWPFXHC (N-terminal acetyl (Ac); CiSEYCiiFWPF[1Nal]HCiii; Ci, Cii, Ciii on TATA scaffold) [BCY20081] | 1060 nM |
